Columns and labels:
[1] = target: α270-His6 (E. coli, UniProt P10443 1-270); assay: NMR
[2] = target: α270(L21P) in construct A (E. coli, UniProt P10443 1-270, Leu21Pro); assay: crystal structure
[3] = target: α270 in construct A (εCTS35–α270) (E. coli, UniProt P10443 1-270); assay: NMR
[4] = target: β2 sliding clamp (E. coli, UniProt P0A988 1-366); assay: SEC
[5] = target: His6-αGL (E. coli, UniProt P10443 1-1160, A921L | M923L | Val832Gly); assay: pull-down

B1: εCTS59 (domain or fragment)
chain: MAFAMEGETQQQQGEATIQRIVRQASKLRVVFATDEEIAAHEARLDLVQKKGGSCLWRA
[1]
  binding result: binds

## ASKLRVVFATDEEIAAHEARLDLVQKKGGSCLWRA (domain or fragment) [εCTS35 (residues 209–243 of ε) in construct A]
[2]
  binding result: binds
[3]
  binding result: binds

B2: εL (natural protein)
chain: MSTAITRQIVLDTETTGMNQIGAHYEGHKIIEIGAVEVVNRRLTGNNFHVYLKPDRLVDPEAFGVHGIADEFLLDKPTFAEVADEFMDYIRGAELVIHNAAFDIGFMDYEFSLLKRDIPKTNTFCKVTDSLAVARKMFPGKRNSLDALCARYEIDNSKRTLHGALLDAQILAEVYLAMTGGQLSLPLAMEGETQQQQGEATIQRIVRQASKLRVVFATDEEIAAHEARLDLVQKKGGSCLWRA
[4]
  binding result: binds
[5]
  binding result: binds

## ATIQRIVRQASKLRVVFATDEEIAAHEARLDLVQKKGGSCLWRA (domain or fragment) [εCTS44 (residues 200–243 of ε) in construct A]
[2]
  binding result: binds

Source: paper PMC3664792 (Nucleic Acids Research, 2013)
